Measurements reported in PMC11156954 (2024).

target: hMRP5-Δ1-94-8xHis (human, UniProt O15440 95-1437, RED-tris-NTA 2nd Generation dye on the His tag); test: MST
Sequence (O15440 95-1437, stated change not applied): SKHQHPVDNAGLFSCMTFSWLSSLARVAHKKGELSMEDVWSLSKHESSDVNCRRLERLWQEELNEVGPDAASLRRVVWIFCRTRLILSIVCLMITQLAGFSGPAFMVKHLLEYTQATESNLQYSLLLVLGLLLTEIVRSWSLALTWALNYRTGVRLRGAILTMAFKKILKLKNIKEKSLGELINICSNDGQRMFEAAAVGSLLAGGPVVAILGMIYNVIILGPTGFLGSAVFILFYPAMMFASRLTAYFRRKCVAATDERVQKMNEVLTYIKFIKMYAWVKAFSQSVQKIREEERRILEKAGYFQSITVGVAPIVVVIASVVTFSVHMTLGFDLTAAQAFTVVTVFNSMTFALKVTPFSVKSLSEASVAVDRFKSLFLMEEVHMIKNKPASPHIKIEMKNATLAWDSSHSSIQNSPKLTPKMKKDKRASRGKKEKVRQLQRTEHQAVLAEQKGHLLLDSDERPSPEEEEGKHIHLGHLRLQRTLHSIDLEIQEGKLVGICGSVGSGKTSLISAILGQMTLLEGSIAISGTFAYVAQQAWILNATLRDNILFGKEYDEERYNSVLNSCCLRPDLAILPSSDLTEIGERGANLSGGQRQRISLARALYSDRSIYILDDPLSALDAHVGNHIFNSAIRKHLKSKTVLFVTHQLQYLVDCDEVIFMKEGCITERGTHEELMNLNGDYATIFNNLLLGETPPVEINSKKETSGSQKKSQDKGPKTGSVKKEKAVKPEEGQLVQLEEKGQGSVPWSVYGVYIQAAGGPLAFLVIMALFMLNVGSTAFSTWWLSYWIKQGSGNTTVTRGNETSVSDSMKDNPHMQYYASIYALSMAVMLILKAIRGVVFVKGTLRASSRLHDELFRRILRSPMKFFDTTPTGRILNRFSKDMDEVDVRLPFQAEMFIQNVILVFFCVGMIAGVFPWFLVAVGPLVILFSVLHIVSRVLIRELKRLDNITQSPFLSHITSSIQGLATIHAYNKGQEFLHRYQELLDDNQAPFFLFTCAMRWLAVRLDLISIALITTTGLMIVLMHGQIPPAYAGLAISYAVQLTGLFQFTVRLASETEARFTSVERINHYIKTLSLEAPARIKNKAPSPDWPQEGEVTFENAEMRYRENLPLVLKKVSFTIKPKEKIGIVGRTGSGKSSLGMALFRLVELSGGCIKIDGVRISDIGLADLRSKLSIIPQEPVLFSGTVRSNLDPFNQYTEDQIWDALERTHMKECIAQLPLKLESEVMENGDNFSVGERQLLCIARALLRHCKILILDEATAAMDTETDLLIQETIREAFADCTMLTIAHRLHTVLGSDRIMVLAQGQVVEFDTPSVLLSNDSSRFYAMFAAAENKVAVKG

Row | Kd | Binder
1 | 24.1 µM | CQDALETAARAEGLSLDAS [Cys46-Ser64 peptide of hMRP5]
2 | 34.6 µM | DSKFRRTRPLECQDALETAARAEGLSLDASMHSQLRILDEE [Asp35-Glu75 peptide of hMRP5]
3 | 2.66 µM | CSKFRRTRPLECQDALETAARAEGLSLDASMHSQLRILDEC [MRP5 potential peptide inhibitor (M5PI)]
4 | 24.4 µM | DIGKEYIIPSPGYRSVRERTS [Asp5-Ser25 peptide of hMRP5]
5 | 50.7 µM | RTRPLECQDALETAARAEGLSLDASMHSQLR [Arg40-Arg70 peptide of hMRP5]
